Data set [1] addresses T1, 6HisRsmA (RsmAxcc) (Xanthomonas citri subsp. citri strain …, UniProt Q8PLP9 1-70). In words: EMSA; 10 mM HEPES pH 7.3, 20 mM KCl, 1 mM MgCl2, 1 mM DTT, 5% glycerol, 0.1 µg/µL yeast tRNA, 20 U RNasin, 25 °C 20 min; 5% native PAGE. The conditions noted are these: protein: recombinant; tags: N-terminal 6xHis (pET-28a, NdeI site); chain copies: 2; label: 3' biotin. For orientation: A gel shift assay detects complexes by their altered migration in electrophoresis.

Data set [2] addresses T1, 6HisRsmA (RsmAxcc). As to the kind of experiment: EMSA; apparent Kd; 6.25 nM RNA; 10 mM HEPES pH 7.3, 20 mM KCl, 1 mM MgCl2, 1 mM DTT, 5% glycerol, 0.1 µg/µL yeast tRNA, 20 U RNasin, 25 °C 20 min; 5% native PAGE. The conditions noted are these: protein: recombinant; tags: N-terminal 6xHis (pET-28a, NdeI site); chain copies: 2; label: 3' biotin.
For data set [3], the target named is T1, 6HisRsmA (RsmAxcc). As to the kind of experiment: EMSA; 65 nM protein, 6.25 nM RNA; 10 mM HEPES pH 7.3, 20 mM KCl, 1 mM MgCl2, 1 mM DTT, 5% glycerol, 0.1 µg/µL yeast tRNA, 20 U RNasin, 25 °C 20 min; 5% native PAGE. The conditions noted are these: protein: recombinant; tags: N-terminal 6xHis (pET-28a, NdeI site); chain copies: 2.

The source of these data is article PMC3937308, “The Post-transcriptional Regulator rsmA/csrA Activates T3SS by Stabilizing the 5′ UTR of hrpG, the Master Regulator of hrp/hrc Genes, in Xanthomonas”.

T1 sequence (Q8PLP9 whole entry): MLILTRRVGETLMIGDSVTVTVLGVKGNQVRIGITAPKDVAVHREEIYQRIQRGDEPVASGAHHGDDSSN

In the case of GCGCAGCGAUCGCGGAAGGAGAGGGCAAUG (ssRNA) [hrpC], the binding result with 6HisRsmA (RsmAxcc) [1] is reported as “no binding”.

Regarding AUUCGUCCAGCUCCGCUGGACUCUC (ssRNA) [hrpG1], in the data set with 6HisRsmA (RsmAxcc) [1], the binding result was “no binding”.

With GCCCAUCGCGCAGAUUGGCAACAUACGGCUACACCGCAUG (ssRNA) [hrpF], the binding result with 6HisRsmA (RsmAxcc) [1] is on record as “no binding”.

ACGAUGCAGCGAUCUUUGAAGAUGGAUUUUGUCCUGGCAUUG (ssRNA) [hrpG2]: in the data set with 6HisRsmA (RsmAxcc) [2], the Kd stood at 180 ± 200 nM.

GGGAAUUCAACUCCAUCUAGGCACAAGGAUGUGCCAUAGUACUCAAGCU (structured_RNA) [R9-43]: the binding result with 6HisRsmA (RsmAxcc) [3] is listed as “binds”.

For the molecule GUUAGGCGCCUGUUGUCUUUUGCUCCGCCCCCCAAAGAGAGAGAC (ssRNA) [hrpX], the binding result with 6HisRsmA (RsmAxcc) [1] was “no binding”.

In the case of GUGUACGGUCCGCAUGUCAUUAAAACGAGGUGCAGUGUG (ssRNA) [hrpB], in the data set with 6HisRsmA (RsmAxcc) [1], the binding result is given as “no binding”.
